How the values were obtained:
ECF-FolT2 = tested on: T1, ECF-FolT2; test: initial rate of radiolabelled uptake into proteoliposomes; type: biochemical, Lactobacillus delbrueckii subsp. bulgaricus; conditions: 10 mM lumenal Mg-ATP, pH 7.5, 30 °C; labelled compound (3H tracer); read-out: apparent Km
T1 construct: four-subunit complex, 10xHis-TEV on EcfA, Strep on FolT2; expressed in E. coli MC1061; purified in DDM, reconstituted in proteoliposomes; ~120 kDa; Energy-coupling factor transporter transmembrane protein EcfT

ECF-PanT = tested on: T2, ECF-PanT; test: as above; type: biochemical, Lactobacillus delbrueckii subsp. bulgaricus; conditions: 5 mM lumenal Mg-ATP, pH 7.5, 30 °C; labelled compound (3H tracer); read-out: apparent Km
T2 construct: four-subunit complex, 10xHis-TEV on EcfA, Strep on PanT; expressed in E. coli MC1061; purified in DDM, reconstituted in proteoliposomes; ~120 kDa; Energy-coupling factor transporter transmembrane protein EcfT

[1] = substrate: Nc1ncnc2c1ncn2[C@@H]1O[C@H](COP(=O)(O)OP(=O)(O)OP(=O)(O)O)[C@@H](O)[C@H]1O; test: initial rate of radiolabelled pantothenate uptake into proteoliposomes at varied lumenal ATP; type: biochemical, Lactobacillus delbrueckii; conditions: 100 nM pantothenate, Mg2+, pH 7.5, 30 °C, sigmoidal, cooperative
[2] = substrate: Nc1ncnc2c1ncn2[C@@H]1O[C@H](COP(=O)(O)OP(=O)(O)OP(=O)(O)O)[C@@H](O)[C@H]1O; test: initial rate of radiolabelled folate uptake into proteoliposomes at varied lumenal ATP; type: biochemical, Lactobacillus delbrueckii; conditions: 100 nM folate, Mg2+, pH 7.5, 30 °C, sigmoidal, cooperative
[3] = target: T3, ECF-PanT (whole pantothenate transporter complex: EcfA, EcfA', EcfT, PanT) (Lactobacillus delbrueckii subsp. …); test: crystal structure; ECF-PanT-Nanobody 81 complex at 5 mg/mL with 5 mM MgATPγS; 70 mM sodium citrate pH 4.5, 22% (v/v) PEG300, 5°C; 2.8 Å, space group P1, two copies of the complex in the asymmetric unit; conditions: both partners purified
T3 construct: Four subunits, Mw ~120 kDa as printed for a full ECF-transporter complex; source: SEC in DDM; copies: + + +
T3 chain 1: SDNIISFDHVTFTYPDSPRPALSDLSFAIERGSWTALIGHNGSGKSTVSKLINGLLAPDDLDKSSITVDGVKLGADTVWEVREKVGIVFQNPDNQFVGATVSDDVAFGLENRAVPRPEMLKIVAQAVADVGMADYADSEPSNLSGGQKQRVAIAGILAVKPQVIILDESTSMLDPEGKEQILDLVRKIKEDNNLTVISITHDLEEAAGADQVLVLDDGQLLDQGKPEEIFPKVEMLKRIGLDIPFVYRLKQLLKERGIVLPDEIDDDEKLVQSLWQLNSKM
T3 chain 2: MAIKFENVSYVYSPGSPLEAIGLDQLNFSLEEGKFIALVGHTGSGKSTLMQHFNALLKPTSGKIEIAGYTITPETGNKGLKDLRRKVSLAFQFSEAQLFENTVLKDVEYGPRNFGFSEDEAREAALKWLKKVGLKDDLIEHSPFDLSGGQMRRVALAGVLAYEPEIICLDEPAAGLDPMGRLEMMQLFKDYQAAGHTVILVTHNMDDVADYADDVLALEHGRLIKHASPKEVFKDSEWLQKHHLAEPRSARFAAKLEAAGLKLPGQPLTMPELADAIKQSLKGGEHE
T3 chain 3: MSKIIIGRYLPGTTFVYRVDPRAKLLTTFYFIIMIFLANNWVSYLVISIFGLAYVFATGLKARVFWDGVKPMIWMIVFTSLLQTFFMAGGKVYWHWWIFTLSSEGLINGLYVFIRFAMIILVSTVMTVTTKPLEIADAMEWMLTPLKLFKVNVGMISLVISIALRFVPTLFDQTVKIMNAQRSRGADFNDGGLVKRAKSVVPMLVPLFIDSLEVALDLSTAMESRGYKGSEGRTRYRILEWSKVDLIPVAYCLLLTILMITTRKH

In the case of `Nc1nc2ncc(CNc3ccc(C(=O)N[C@@H](CCC(=O)O)C(=O)O)cc3)nc2c(=O)[nH]1` [folate], the Km (ECF-FolT2) is reported as 0.082 ± 0.02 µM.

In the case of `CC(C)(CO)[C@@H](O)C(=O)NCCC(=O)O` [pantothenate], the Km (ECF-PanT) is reported as 0.046 ± 0.011 µM.

B1: ECF-PanT (Lactobacillus delbrueckii subsp. bulgaricus ATCC 11842 = JCM 1002) (protein)
chain 1: MSDNIISFDHVTFTYPDSPRPALSDLSFAIERGSWTALIGHNGSGKSTVSKLINGLLAPDDLDKSSITVDGVKLGADTVWEVREKVGIVFQNPDNQFVGATVSDDVAFGLENRAVPRPEMLKIVAQAVADVGMADYADSEPSNLSGGQKQRVAIAGILAVKPQVIILDESTSMLDPEGKEQILDLVRKIKEDNNLTVISITHDLEEAAGADQVLVLDDGQLLDQGKPEEIFPKVEMLKRIGLDIPFVYRLKQLLKERGIVLPDEIDDDEKLVQSLWQLNSKM
chain 2: MAIKFENVSYVYSPGSPLEAIGLDQLNFSLEEGKFIALVGHTGSGKSTLMQHFNALLKPTSGKIEIAGYTITPETGNKGLKDLRRKVSLAFQFSEAQLFENTVLKDVEYGPRNFGFSEDEAREAALKWLKKVGLKDDLIEHSPFDLSGGQMRRVALAGVLAYEPEIICLDEPAAGLDPMGRLEMMQLFKDYQAAGHTVILVTHNMDDVADYADDVLALEHGRLIKHASPKEVFKDSEWLQKHHLAEPRSARFAAKLEAAGLKLPGQPLTMPELADAIKQSLKGGEHE
notes: with Energy-coupling factor transporter transmembrane protein EcfT; Pantothenate ECF transporter S component PanT
With B1 the Km [1] was 5600 ± 1000 µM.

B2: ECF-FolT2 (Lactobacillus delbrueckii subsp. bulgaricus ATCC 11842 = JCM 1002) (protein)
chain 1: MSDNIISFDHVTFTYPDSPRPALSDLSFAIERGSWTALIGHNGSGKSTVSKLINGLLAPDDLDKSSITVDGVKLGADTVWEVREKVGIVFQNPDNQFVGATVSDDVAFGLENRAVPRPEMLKIVAQAVADVGMADYADSEPSNLSGGQKQRVAIAGILAVKPQVIILDESTSMLDPEGKEQILDLVRKIKEDNNLTVISITHDLEEAAGADQVLVLDDGQLLDQGKPEEIFPKVEMLKRIGLDIPFVYRLKQLLKERGIVLPDEIDDDEKLVQSLWQLNSKM
chain 2: MAIKFENVSYVYSPGSPLEAIGLDQLNFSLEEGKFIALVGHTGSGKSTLMQHFNALLKPTSGKIEIAGYTITPETGNKGLKDLRRKVSLAFQFSEAQLFENTVLKDVEYGPRNFGFSEDEAREAALKWLKKVGLKDDLIEHSPFDLSGGQMRRVALAGVLAYEPEIICLDEPAAGLDPMGRLEMMQLFKDYQAAGHTVILVTHNMDDVADYADDVLALEHGRLIKHASPKEVFKDSEWLQKHHLAEPRSARFAAKLEAAGLKLPGQPLTMPELADAIKQSLKGGEHE
notes: with Energy-coupling factor transporter transmembrane protein EcfT; Folate ECF transporter S component FolT2
Work on B2 yielded a Km [2] of 5600 ± 1700 µM.

B3: nanobody CA14381 (Nb81) (VHH)
VHH: QVQLVESGGGLVQPGGSLRLSCTASGFTLDDYAIGWFRQAPGKEREGISCISRSGSSTTYADSVKGRFTISRDRAENTVYLQMNSLKPEDTADYYCAATPVWYWSCAVKVGPYDYWGQGTQVTVSS
notes: the nanobody chain of PDB 6ZG3 (solved here); Llama (Lama glama) nanobody selected by phage display against ECF-PanT; Cloned in a Golden Gate variant of pMESy4 (GenBank KF415192); also called nanobody 81; Nanobody 81; source: E. coli WK6 periplasm, purified (Ni-Sepharose, desalting)
B3: binds [3].

— paper PMC7755397, “In vitro reconstitution of dynamically interacting integral membrane subunits of energy-coupling factor transporters” (eLife, 2020)
